Source: paper PMC7817190 (Proceedings of the National Academy of Sciences of the …, 2020)

T1: His-tagged human recombinant corneodesmosin (His-CDSN) (human, UniProt Q15517 33-529)
T1 sequence (looked up): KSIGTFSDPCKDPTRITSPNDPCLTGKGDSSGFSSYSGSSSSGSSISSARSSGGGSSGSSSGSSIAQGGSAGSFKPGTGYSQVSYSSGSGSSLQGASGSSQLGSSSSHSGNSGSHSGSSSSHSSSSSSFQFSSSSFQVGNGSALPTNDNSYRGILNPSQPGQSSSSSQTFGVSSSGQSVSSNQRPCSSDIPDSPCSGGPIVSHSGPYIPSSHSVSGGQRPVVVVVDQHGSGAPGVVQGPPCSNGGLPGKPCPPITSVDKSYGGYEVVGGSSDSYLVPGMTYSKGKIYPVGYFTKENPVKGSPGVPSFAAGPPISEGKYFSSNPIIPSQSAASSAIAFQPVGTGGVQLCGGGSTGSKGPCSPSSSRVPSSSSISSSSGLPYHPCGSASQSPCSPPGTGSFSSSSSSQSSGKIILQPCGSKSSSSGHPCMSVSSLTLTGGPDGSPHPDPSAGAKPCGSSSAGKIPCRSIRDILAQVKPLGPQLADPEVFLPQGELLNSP


Columns and labels:
[1] = target: His-tagged human recombinant corneodesmosin (His-CDSN) (human) (UniProt Q15517); assay: SPR
[2] = target: T1, His-tagged human recombinant …; assay: SPR

Row | Molecule | Kd [1] | Kd [2]
1 | recombinant FnBPB N2N3 subdomains with the sequence of the AD08 protein (rFnBPBCC1N2N3) (domain or fragment) | 49.1 µM | –
2 | recombinant ClfB N2N3 subdomains with the sequence of the AD08 protein (rClfBCC1N2N3) (domain or fragment) AEPVVNAADAKGTNVNDKVTAKDFQLEKTTFDPNQSGNTFMAANFTVTGQVKSGDYFTAKLPDSVTGNGDVDYSNSNNTMPIADIVNDKNEVVAKATYDILTKTYTFVFTDYVNDKQNINGKFSLPLFTDRAKAPKSGTYDANINIADEMFNNKITYNYSSPIAGIDKPNGANISSQIIGVDTASGQNTYKQTVFVNPKQRVLGNTWVYIKGYQDKIEESSGKVSATDTKLRIFEVNDTSKLSDSYYADPNDSNLKEVTDQFKDKITYKYQNVASINFGDINKTYVVLVEGHYDKTGKNLKTQVIQENVDPATGKDYSIFGWNNENVVRYGGGSADGDSAVN | – | 44.6 µM
